{
  "source": "patent US20210071139A1",
  "key": {"Chtop": {"target": "Chtop (UniProt Q9CY57)", "experiment": "anti-TOX IP from EL4 nuclear extract, LC-MS/MS, MiST"}, "Thoc2": {"target": "Thoc2 (UniProt B1AZI6)", "sequence (B1AZI6 whole entry)": "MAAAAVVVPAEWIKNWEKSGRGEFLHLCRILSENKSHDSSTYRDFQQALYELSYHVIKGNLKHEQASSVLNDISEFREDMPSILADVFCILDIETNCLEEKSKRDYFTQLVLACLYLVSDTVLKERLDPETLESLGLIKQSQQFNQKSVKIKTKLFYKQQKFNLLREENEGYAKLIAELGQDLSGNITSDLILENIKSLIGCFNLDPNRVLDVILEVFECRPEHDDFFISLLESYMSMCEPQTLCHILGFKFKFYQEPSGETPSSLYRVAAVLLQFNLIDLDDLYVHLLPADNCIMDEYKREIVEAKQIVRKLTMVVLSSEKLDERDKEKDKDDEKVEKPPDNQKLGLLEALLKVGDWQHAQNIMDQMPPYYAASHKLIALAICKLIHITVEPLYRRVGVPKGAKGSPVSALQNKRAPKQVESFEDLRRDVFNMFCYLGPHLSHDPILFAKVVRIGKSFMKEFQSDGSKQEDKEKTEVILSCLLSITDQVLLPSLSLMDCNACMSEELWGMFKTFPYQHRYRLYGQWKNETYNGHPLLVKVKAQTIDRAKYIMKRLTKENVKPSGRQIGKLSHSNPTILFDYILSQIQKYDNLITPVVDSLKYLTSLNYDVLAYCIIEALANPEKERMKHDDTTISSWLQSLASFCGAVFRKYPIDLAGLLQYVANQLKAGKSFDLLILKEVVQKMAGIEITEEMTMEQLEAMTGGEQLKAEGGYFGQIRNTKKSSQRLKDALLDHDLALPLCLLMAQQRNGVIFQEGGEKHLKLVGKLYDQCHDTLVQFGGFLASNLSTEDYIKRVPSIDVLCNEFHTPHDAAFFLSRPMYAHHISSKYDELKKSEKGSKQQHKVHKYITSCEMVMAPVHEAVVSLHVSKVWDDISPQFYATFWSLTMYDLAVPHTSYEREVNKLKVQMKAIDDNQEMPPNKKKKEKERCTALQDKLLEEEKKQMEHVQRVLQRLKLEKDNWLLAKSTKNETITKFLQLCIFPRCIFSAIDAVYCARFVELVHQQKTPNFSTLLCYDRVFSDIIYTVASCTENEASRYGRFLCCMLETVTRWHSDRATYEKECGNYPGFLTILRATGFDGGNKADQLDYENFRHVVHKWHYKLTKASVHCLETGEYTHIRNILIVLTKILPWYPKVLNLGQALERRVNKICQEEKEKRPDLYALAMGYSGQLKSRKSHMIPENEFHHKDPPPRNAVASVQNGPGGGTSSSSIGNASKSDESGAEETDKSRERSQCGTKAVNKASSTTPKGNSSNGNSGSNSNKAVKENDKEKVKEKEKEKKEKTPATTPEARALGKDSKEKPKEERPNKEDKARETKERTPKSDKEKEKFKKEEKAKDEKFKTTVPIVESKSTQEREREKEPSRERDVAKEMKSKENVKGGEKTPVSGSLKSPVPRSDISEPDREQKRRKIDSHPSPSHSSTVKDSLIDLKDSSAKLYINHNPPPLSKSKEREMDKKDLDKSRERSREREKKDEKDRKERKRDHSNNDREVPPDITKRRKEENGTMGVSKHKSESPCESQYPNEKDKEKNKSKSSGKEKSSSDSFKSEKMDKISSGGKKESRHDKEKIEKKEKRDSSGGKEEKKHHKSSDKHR", "experiment": "anti-TOX IP from EL4 nuclear extract, LC-MS/MS, MiST"}, "Pml": {"target": "Pml (UniProt Q60953)", "experiment": "anti-TOX IP from EL4 nuclear extract, LC-MS/MS, MiST"}, "Afg3l1": {"target": "Afg3l1 (UniProt Q920A7)", "experiment": "anti-TOX IP from EL4 nuclear extract, LC-MS/MS, MiST"}, "Larp7": {"target": "Larp7 (UniProt Q05CL8)", "sequence (Q05CL8 whole entry)": "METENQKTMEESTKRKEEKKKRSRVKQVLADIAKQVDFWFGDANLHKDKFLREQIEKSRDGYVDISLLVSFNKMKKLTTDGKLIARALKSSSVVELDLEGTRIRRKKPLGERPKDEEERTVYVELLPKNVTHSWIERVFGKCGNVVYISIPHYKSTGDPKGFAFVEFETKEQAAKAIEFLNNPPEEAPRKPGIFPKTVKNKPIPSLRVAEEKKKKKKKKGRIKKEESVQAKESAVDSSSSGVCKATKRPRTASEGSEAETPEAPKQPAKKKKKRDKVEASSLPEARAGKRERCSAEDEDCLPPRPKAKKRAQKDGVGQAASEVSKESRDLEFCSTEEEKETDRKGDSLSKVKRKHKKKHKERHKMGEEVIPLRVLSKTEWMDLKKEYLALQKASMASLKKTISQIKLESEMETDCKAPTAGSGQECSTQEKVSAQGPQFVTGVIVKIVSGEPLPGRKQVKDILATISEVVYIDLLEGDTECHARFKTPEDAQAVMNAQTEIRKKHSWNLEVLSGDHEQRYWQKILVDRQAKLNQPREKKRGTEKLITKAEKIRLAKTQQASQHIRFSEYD", "experiment": "anti-TOX IP from EL4 nuclear extract, LC-MS/MS, MiST"}, "Pdlim1": {"target": "Pdlim1 (UniProt O70400)", "experiment": "anti-TOX IP from EL4 nuclear extract, LC-MS/MS, MiST"}, "Dido1": {"target": "Dido1 (UniProt Q8C9B9)", "experiment": "anti-TOX IP from EL4 nuclear extract, LC-MS/MS, MiST"}, "Trip12": {"target": "Trip12 (UniProt G5E870)", "experiment": "anti-TOX IP from EL4 nuclear extract, LC-MS/MS, MiST"}, "Wdhd1": {"target": "Wdhd1 (UniProt P59328)", "experiment": "anti-TOX IP from EL4 nuclear extract, LC-MS/MS, MiST"}, "Taf6": {"target": "Taf6 (UniProt Q62311)", "experiment": "anti-TOX IP from EL4 nuclear extract, LC-MS/MS, MiST"}, "Eif4h": {"target": "Eif4h (UniProt Q9WUK2)", "experiment": "anti-TOX IP from EL4 nuclear extract, LC-MS/MS, MiST"}, "Eif4g2": {"target": "Eif4g2 (UniProt Q62448)", "sequence (Q62448 whole entry)": "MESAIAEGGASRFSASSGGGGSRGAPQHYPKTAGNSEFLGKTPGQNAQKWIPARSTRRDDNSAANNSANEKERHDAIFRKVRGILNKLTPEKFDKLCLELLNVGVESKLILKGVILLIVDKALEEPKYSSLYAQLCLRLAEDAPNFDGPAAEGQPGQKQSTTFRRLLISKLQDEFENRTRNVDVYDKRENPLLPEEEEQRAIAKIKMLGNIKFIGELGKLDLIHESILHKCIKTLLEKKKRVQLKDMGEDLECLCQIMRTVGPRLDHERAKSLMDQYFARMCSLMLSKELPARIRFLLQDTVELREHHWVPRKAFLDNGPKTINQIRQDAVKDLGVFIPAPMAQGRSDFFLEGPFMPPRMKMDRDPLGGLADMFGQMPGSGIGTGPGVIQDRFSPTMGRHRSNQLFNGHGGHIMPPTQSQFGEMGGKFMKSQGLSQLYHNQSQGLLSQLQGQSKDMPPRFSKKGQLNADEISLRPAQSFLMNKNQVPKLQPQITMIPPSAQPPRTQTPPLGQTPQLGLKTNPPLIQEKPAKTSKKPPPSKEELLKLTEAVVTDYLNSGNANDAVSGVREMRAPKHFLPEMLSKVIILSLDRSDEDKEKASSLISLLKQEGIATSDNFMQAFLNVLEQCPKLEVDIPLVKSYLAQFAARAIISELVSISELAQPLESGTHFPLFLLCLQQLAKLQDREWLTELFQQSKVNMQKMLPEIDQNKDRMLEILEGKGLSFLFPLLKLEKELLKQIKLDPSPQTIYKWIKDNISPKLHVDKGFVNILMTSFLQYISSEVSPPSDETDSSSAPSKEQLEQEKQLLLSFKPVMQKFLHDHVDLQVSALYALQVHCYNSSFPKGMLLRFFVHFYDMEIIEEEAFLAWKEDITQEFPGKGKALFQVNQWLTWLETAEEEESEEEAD", "experiment": "anti-TOX IP from EL4 nuclear extract, LC-MS/MS, MiST"}, "Trim21": {"target": "Trim21 (UniProt Q62191)", "experiment": "anti-TOX IP from EL4 nuclear extract, LC-MS/MS, MiST"}, "Tsr1": {"target": "Tsr1 (UniProt Q5SWD9)", "experiment": "anti-TOX IP from EL4 nuclear extract, LC-MS/MS, MiST"}, "Ogdh": {"target": "Ogdh (UniProt Q60597)", "experiment": "anti-TOX IP from EL4 nuclear extract, LC-MS/MS, MiST"}, "Ing2": {"target": "Ing2 (UniProt Q9ESK4)", "sequence (Q9ESK4 whole entry)": "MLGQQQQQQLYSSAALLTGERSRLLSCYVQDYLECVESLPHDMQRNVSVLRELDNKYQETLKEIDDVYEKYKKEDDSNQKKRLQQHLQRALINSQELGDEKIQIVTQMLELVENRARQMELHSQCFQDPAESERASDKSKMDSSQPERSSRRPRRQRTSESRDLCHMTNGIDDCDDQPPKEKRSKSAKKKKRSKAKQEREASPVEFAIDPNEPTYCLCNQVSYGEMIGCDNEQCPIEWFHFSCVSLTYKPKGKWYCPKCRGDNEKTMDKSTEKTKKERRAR", "experiment": "anti-TOX IP from EL4 nuclear extract, LC-MS/MS, MiST"}, "Anln": {"target": "Anln (UniProt Q8K298)", "experiment": "anti-TOX IP from EL4 nuclear extract, LC-MS/MS, MiST"}, "Mars": {"target": "Mars (UniProt Q68FL6)", "sequence (Q68FL6 whole entry)": "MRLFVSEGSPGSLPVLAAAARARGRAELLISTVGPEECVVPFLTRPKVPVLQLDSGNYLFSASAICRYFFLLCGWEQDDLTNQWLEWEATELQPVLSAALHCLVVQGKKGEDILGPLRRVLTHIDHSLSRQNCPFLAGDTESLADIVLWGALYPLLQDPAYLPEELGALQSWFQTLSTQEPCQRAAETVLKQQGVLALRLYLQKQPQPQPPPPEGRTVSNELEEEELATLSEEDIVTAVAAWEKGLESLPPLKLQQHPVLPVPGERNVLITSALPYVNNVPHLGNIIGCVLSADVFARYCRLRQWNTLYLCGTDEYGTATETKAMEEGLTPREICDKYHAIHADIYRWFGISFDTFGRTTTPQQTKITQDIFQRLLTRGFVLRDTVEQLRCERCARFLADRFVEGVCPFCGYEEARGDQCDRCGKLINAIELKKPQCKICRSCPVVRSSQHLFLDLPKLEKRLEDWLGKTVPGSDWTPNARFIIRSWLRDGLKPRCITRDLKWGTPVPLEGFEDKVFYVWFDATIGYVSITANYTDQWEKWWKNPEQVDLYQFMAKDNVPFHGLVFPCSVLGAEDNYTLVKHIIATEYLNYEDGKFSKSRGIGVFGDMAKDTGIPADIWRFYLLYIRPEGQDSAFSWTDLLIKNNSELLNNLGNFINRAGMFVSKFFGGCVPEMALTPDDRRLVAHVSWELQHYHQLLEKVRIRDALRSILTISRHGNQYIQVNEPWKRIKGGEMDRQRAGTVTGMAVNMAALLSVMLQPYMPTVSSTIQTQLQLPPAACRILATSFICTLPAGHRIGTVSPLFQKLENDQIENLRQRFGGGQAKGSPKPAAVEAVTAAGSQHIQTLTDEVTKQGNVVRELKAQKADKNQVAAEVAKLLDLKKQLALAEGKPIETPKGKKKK", "experiment": "anti-TOX IP from EL4 nuclear extract, LC-MS/MS, MiST"}, "Cdc27": {"target": "Cdc27 (UniProt A2A6Q5)", "sequence (A2A6Q5 whole entry)": "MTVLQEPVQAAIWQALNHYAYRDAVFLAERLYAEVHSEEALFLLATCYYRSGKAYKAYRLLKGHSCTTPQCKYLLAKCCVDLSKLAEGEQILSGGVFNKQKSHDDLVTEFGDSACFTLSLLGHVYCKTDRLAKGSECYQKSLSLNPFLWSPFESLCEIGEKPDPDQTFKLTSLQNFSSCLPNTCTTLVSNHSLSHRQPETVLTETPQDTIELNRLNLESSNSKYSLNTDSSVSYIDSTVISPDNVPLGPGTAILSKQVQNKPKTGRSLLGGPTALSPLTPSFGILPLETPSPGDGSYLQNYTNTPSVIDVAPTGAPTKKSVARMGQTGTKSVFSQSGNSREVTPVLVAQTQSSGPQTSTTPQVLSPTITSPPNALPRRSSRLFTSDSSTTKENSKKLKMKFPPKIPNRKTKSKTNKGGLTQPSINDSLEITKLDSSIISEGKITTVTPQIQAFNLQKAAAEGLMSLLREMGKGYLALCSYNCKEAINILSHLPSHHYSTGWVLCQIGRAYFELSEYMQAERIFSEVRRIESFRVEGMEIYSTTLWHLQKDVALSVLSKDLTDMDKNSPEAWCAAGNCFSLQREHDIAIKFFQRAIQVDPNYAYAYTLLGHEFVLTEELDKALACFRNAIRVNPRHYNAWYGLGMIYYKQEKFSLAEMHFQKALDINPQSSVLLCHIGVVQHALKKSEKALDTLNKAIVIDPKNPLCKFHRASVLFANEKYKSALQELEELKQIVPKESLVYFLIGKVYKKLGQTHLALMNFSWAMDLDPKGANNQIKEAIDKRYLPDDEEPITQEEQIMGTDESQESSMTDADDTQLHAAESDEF", "experiment": "anti-TOX IP from EL4 nuclear extract, LC-MS/MS, MiST"}, "Tagln2": {"target": "Tagln2 (UniProt Q9WVA4)", "experiment": "anti-TOX IP from EL4 nuclear extract, LC-MS/MS, MiST"}, "Ddx55": {"target": "Ddx55 (UniProt Q6ZPL9)", "experiment": "anti-TOX IP from EL4 nuclear extract, LC-MS/MS, MiST"}, "Zfr": {"target": "Zfr (UniProt O88532)", "experiment": "anti-TOX IP from EL4 nuclear extract, LC-MS/MS, MiST"}, "Utp18": {"target": "Utp18 (UniProt Q5SSI6)", "experiment": "anti-TOX IP from EL4 nuclear extract, LC-MS/MS, MiST"}, "Gm10094; Sap18": {"target": "Gm10094; Sap18", "experiment": "anti-TOX IP from EL4 nuclear extract, LC-MS/MS, MiST"}, "Sap130": {"target": "Sap130 (UniProt Q8BIH0)", "experiment": "TOX IP-MS, EL4 nuclear extract, MiST"}, "env": {"target": "env", "experiment": "TOX IP-MS, EL4 nuclear extract, MiST"}},
  "data": [
    {"substance": "TOX (from UniProt Q66JW3 1-526)", "values": [
      {"measurement": "Abundance", "setting": "Chtop", "value": 0.000479},
      {"measurement": "MiST Score", "setting": "Chtop", "value": 0.862},
      {"measurement": "Reproducibility", "setting": "Chtop", "value": 0.936},
      {"measurement": "Specificity", "setting": "Chtop", "value": 0.837},
      {"measurement": "Abundance", "setting": "Thoc2", "value": "1.6e-06"},
      {"measurement": "MiST Score", "setting": "Thoc2", "value": 0.859},
      {"measurement": "Reproducibility", "setting": "Thoc2", "value": 0.9},
      {"measurement": "Specificity", "setting": "Thoc2", "value": 0.848},
      {"measurement": "Abundance", "setting": "Pml", "value": "8.97e-06"},
      {"measurement": "MiST Score", "setting": "Pml", "value": 0.858},
      {"measurement": "Reproducibility", "setting": "Pml", "value": 0.557},
      {"measurement": "Specificity", "setting": "Pml", "value": 1},
      {"measurement": "Abundance", "setting": "Afg3l1", "value": "2.15e-06"},
      {"measurement": "MiST Score", "setting": "Afg3l1", "value": 0.874},
      {"measurement": "Reproducibility", "setting": "Afg3l1", "value": 0.61},
      {"measurement": "Specificity", "setting": "Afg3l1", "value": 1},
      {"measurement": "Abundance", "setting": "Larp7", "value": "9.12e-06"},
      {"measurement": "MiST Score", "setting": "Larp7", "value": 0.859},
      {"measurement": "Reproducibility", "setting": "Larp7", "value": 0.896},
      {"measurement": "Specificity", "setting": "Larp7", "value": 0.849},
      {"measurement": "Abundance", "setting": "Pdlim1", "value": "1.21e-05"},
      {"measurement": "MiST Score", "setting": "Pdlim1", "value": 0.858},
      {"measurement": "Reproducibility", "setting": "Pdlim1", "value": 0.559},
      {"measurement": "Specificity", "setting": "Pdlim1", "value": 1},
      {"measurement": "Abundance", "setting": "Dido1", "value": "3.41e-07"},
      {"measurement": "MiST Score", "setting": "Dido1", "value": 0.878},
      {"measurement": "Reproducibility", "setting": "Dido1", "value": 0.624},
      {"measurement": "Specificity", "setting": "Dido1", "value": 1},
      {"measurement": "Abundance", "setting": "Trip12", "value": "1.4e-06"},
      {"measurement": "MiST Score", "setting": "Trip12", "value": 0.866},
      {"measurement": "Reproducibility", "setting": "Trip12", "value": 0.585},
      {"measurement": "Specificity", "setting": "Trip12", "value": 1},
      {"measurement": "Abundance", "setting": "Wdhd1", "value": "1.64e-06"},
      {"measurement": "MiST Score", "setting": "Wdhd1", "value": 0.877},
      {"measurement": "Reproducibility", "setting": "Wdhd1", "value": 0.619},
      {"measurement": "Specificity", "setting": "Wdhd1", "value": 1},
      {"measurement": "Abundance", "setting": "Taf6", "value": "1.15e-06"},
      {"measurement": "MiST Score", "setting": "Taf6", "value": 0.864},
      {"measurement": "Reproducibility", "setting": "Taf6", "value": 0.578},
      {"measurement": "Specificity", "setting": "Taf6", "value": 1},
      {"measurement": "Abundance", "setting": "Eif4h", "value": "1.07e-05"},
      {"measurement": "MiST Score", "setting": "Eif4h", "value": 0.869},
      {"measurement": "Reproducibility", "setting": "Eif4h", "value": 0.595},
      {"measurement": "Specificity", "setting": "Eif4h", "value": 1},
      {"measurement": "Abundance", "setting": "Eif4g2", "value": "4.84e-06"},
      {"measurement": "MiST Score", "setting": "Eif4g2", "value": 0.866},
      {"measurement": "Reproducibility", "setting": "Eif4g2", "value": 0.887},
      {"measurement": "Specificity", "setting": "Eif4g2", "value": 0.864},
      {"measurement": "Abundance", "setting": "Trim21", "value": "4.56e-06"},
      {"measurement": "MiST Score", "setting": "Trim21", "value": 0.858},
      {"measurement": "Reproducibility", "setting": "Trim21", "value": 0.56},
      {"measurement": "Specificity", "setting": "Trim21", "value": 1},
      {"measurement": "Abundance", "setting": "Tsr1", "value": "5.3e-06"},
      {"measurement": "MiST Score", "setting": "Tsr1", "value": 0.862},
      {"measurement": "Reproducibility", "setting": "Tsr1", "value": 0.962},
      {"measurement": "Specificity", "setting": "Tsr1", "value": 0.824},
      {"measurement": "Abundance", "setting": "Ogdh", "value": "1.34e-05"},
      {"measurement": "MiST Score", "setting": "Ogdh", "value": 0.88},
      {"measurement": "Reproducibility", "setting": "Ogdh", "value": 0.851},
      {"measurement": "Specificity", "setting": "Ogdh", "value": 0.902},
      {"measurement": "Abundance", "setting": "Ing2", "value": "2.44e-05"},
      {"measurement": "MiST Score", "setting": "Ing2", "value": 0.878},
      {"measurement": "Reproducibility", "setting": "Ing2", "value": 0.625},
      {"measurement": "Specificity", "setting": "Ing2", "value": 1},
      {"measurement": "Abundance", "setting": "Anln", "value": "4.57e-07"},
      {"measurement": "MiST Score", "setting": "Anln", "value": 0.861},
      {"measurement": "Reproducibility", "setting": "Anln", "value": 0.567},
      {"measurement": "Specificity", "setting": "Anln", "value": 1},
      {"measurement": "Abundance", "setting": "Mars", "value": "3.23e-07"},
      {"measurement": "MiST Score", "setting": "Mars", "value": 0.877},
      {"measurement": "Reproducibility", "setting": "Mars", "value": 0.619},
      {"measurement": "Specificity", "setting": "Mars", "value": 1},
      {"measurement": "Abundance", "setting": "Cdc27", "value": "6.71e-06"},
      {"measurement": "MiST Score", "setting": "Cdc27", "value": 0.87},
      {"measurement": "Reproducibility", "setting": "Cdc27", "value": 0.597},
      {"measurement": "Specificity", "setting": "Cdc27", "value": 1},
      {"measurement": "Abundance", "setting": "Tagln2", "value": "1.75e-05"},
      {"measurement": "MiST Score", "setting": "Tagln2", "value": 0.875},
      {"measurement": "Reproducibility", "setting": "Tagln2", "value": 0.616},
      {"measurement": "Specificity", "setting": "Tagln2", "value": 1},
      {"measurement": "Abundance", "setting": "Ddx55", "value": "2.21e-06"},
      {"measurement": "MiST Score", "setting": "Ddx55", "value": 0.863},
      {"measurement": "Reproducibility", "setting": "Ddx55", "value": 0.574},
      {"measurement": "Specificity", "setting": "Ddx55", "value": 1},
      {"measurement": "Abundance", "setting": "Zfr", "value": "2.44e-06"},
      {"measurement": "MiST Score", "setting": "Zfr", "value": 0.866},
      {"measurement": "Reproducibility", "setting": "Zfr", "value": 0.991},
      {"measurement": "Specificity", "setting": "Zfr", "value": 0.817},
      {"measurement": "Abundance", "setting": "Utp18", "value": "1.83e-05"},
      {"measurement": "MiST Score", "setting": "Utp18", "value": 0.865},
      {"measurement": "Reproducibility", "setting": "Utp18", "value": 0.582},
      {"measurement": "Specificity", "setting": "Utp18", "value": 1},
      {"measurement": "Abundance", "setting": "Gm10094; Sap18", "value": "2.26e-05"},
      {"measurement": "MiST Score", "setting": "Gm10094; Sap18", "value": 0.878},
      {"measurement": "Reproducibility", "setting": "Gm10094; Sap18", "value": 0.625},
      {"measurement": "Specificity", "setting": "Gm10094; Sap18", "value": 1}
    ]},
    {"substance": "Tox (from UniProt Q66JW3 1-526)", "values": [
      {"measurement": "Abundance", "setting": "Sap130", "value": "5.37e-06"},
      {"measurement": "MiST Score", "setting": "Sap130", "value": 0.971},
      {"measurement": "Reproducibility", "setting": "Sap130", "value": 0.926},
      {"measurement": "Specificity", "setting": "Sap130", "value": 1},
      {"measurement": "Abundance", "setting": "env", "value": 0.000113},
      {"measurement": "MiST Score", "setting": "env", "value": 0.977},
      {"measurement": "Reproducibility", "setting": "env", "value": 0.946},
      {"measurement": "Specificity", "setting": "env", "value": 1}
    ]}
  ]
}
